According to patent US5689048:
Each block holds one substance with its values, some of them ahead of it.

How the values were obtained:
[1] = biological target: Mj-AMP2 (Mirabilis jalapa--Antimicrobial Protein 2) (Mirabilis jalapa)
[2] = biological target: Mj-AMP1 (Mirabilis jalapa--Antimicrobial Protein 1) (Mirabilis jalapa)

Relative antifungal activity (shown as % of control activity) after Proteinase K digestion (% of control activity) [1]: 100
Relative antifungal activity (shown as % of control activity) after Proteinase K digestion (% of control activity) [2]: 100
Substance: Proteinase K (from UniProt P06873) (enzyme)

Relative antifungal activity (shown as % of control activity) after Chymotrypsin digestion (% of control activity) [1]: 50
Relative antifungal activity (shown as % of control activity) after Chymotrypsin digestion (% of control activity) [2]: 12
Substance: Chymotrypsin (enzyme)

Relative antifungal activity (shown as % of control activity) after Pronase E digestion (% of control activity) [1]: 25
Relative antifungal activity (shown as % of control activity) after Pronase E digestion (% of control activity) [2]: 50
Substance: Pronase E (enzyme)

Relative antifungal activity (shown as % of control activity) after Trypsin digestion (% of control activity) [1]: 100
Relative antifungal activity (shown as % of control activity) after Trypsin digestion (% of control activity) [2]: 75
Substance: Trypsin (enzyme)
